In patent publication US20250135039A1, “INHIBITOR-RESISTANT MGMT MODIFICATIONS AND MODIFICATION OF MGMT-ENCODING NUCLEIC ACIDS” (Ensoma, Inc., priority 2022, published 2025):
Positions count from the first letter of the chain named. Numbers in names are those of the source.

B1: R135G: MGMT polypeptide with mutation R135G (protein)
chain: MDKDCEMKRTTLDSPLGKLELSGCEQGLHEIKLLGKGTSAADAVEVPAPAAVLGGPEPLMQCTAWLNAYFHQPEAIEEFPVPALHHPVFQQESFTRQVLWKLLKVVKFGEVISYQQLAALAGNPKAARAVGGAMGGNPVPILIPCHRVVCSSGAVGNYSGGLAVKEWLLAHEGHRLGKPGLGGSSGLAGAWLKGAGATSGSPPAGRN
B2: N137P: MGMT polypeptide with mutation N137P (protein)
chain: B1 chain with G135R, N137P
B3: P140Q: MGMT polypeptide with mutation P140Q (protein)
chain: B1 chain with G135R, P140Q
B4: N137F: MGMT polypeptide with mutation N137F (protein)
chain: B1 chain with G135R, N137F
B5: P140F: MGMT polypeptide with mutation P140F (protein)
chain: B1 chain with G135R, P140F
B6: R135T: MGMT polypeptide with mutation R135T (protein)
chain: B1 chain with G135T
B7: P138K: MGMT polypeptide with mutation P138K (protein)
chain: B1 chain with G135R, P138K
B8: R135L: MGMT polypeptide with mutation R135L (protein)
chain: B1 chain with G135L
B9: R135K: MGMT polypeptide with mutation R135K (protein)
chain: B1 chain with G135K
B10: N137D: MGMT polypeptide with mutation N137D (protein)
chain: B1 chain with G135R, N137D
B11: P140I: MGMT polypeptide with mutation P140I (protein)
chain: B1 chain with G135R, P140I
B12: P140H: MGMT polypeptide with mutation P140H (protein)
chain: B1 chain with G135R, P140H

System: U251 human glioblastoma cell line
Assay: in vitro FM-HCR assay of MGMT activity (mPlum O^6MeG reporter plasmid)
Type: cell-based
Conditions: for Reporter expression (%) mean, O^6BG: 100 μM O^6BG; for Reporter expression (%) mean, O^6BG / Reporter expression (%) mean, DMSO: U251 cells, flow cytometry 24 h after transfection, damaged/undamaged reporter, inversely related to MGMT activity; for Reporter expression (%) mean, DMSO: 0.1% DMSO; for MGMT activity (a.u.) DMSO / MGMT activity (% of WT) DMSO: DMSO condition; for MGMT activity (a.u.) DMSO / MGMT activity (a.u.) O^6BG: determined from percent reporter expression; for MGMT activity (% of WT) DMSO / MGMT activity (% of WT) O^6BG: relative to wild-type MGMT in same condition; for Relative MGMT activity (%): MGMT activity (a.u.) in O^6BG divided by DMSO x 100, higher values indicate resistance; for MGMT activity (a.u.) O^6BG / MGMT activity (% of WT) O^6BG: O^6BG condition; for Ratio percent reporter expression (O^6BG/DMSO): lower values indicate resistance to O^6BG; for O^6BG resistance relative to WT (%): percentage difference in relative MGMT activity between variant and wild-type MGMT
Excerpt: The present Example includes, in part, an in vitro fluorescence multiplex host cell reactivation (FM-HCR) assay in which a reporter plasmid with O^6MeG-containing oligonucleotides is used. The oligonucleotides induce transcription errors that lead to expression of fluorescent mPlum protein. Functional MGMT will repair the O^6MeG sites and reduce mPlum expression. This represents a rapid and validated assay system to assess intracellular activity of MGMT. Further description of certain such assays is found in Nagel (2014 PNAS USA 111 (18): E1823-32, which is incorporated herein by reference.
The present Example uses an in vitro FM-HCR assay in which a reporter plasmid with 0° MeG-containing oligonucleotides is used to assay MGMT activity in cells. The O^6MeG-containing oligonucleotides induce transcription errors that lead to expression of fluorescent mPlum protein. Functional MGMT will repair the O'MeG sites and reduce mPlum expression. This represents a rapid and validated assay system to assess intracellular activity of MGMT. Further description of certain such assays is found in Nagel et al., 2014 PNAS USA 111 (18): E1823-32 and Piett et al., 2021 Nat. Protoc. 16 (9): 4265-4298, each of which is incorporated herein by reference.
The in vitro FM-HCR assay was performed using the U251 human glioblastoma cell line. The cells were cultured in DMEM with 10% FBS and passaged every three days.
To express MGMT variants in the cells, plasmids encoding each MGMT variant were designed and generated by either de novo synthesis or cloning into the pTwist EF1 Alpha Puro vector at the HindII-BamHI multiple cloning site. The pTwist EF1 Alpha Puro plasmid vector drives expression of the MGMT transcript from a human EF1-alpha promoter including intron 1 and an SV40 polyadenylation signal. Plasmids encoding the MGMT variants were purified using standard molecular biology techniques from E. coli with low endotoxins. Plasmids encoding wild-type MGMT or O^6BG-resistant MGMT^P140K were also designed and generated for use as controls.
To perform the in vitro FM-HCR assay, U251 cells were seeded in 12-well plates at a density of 50,000 cells per well in 1 mL culture media. The following day, the media was changed to 1 mL of culture media containing O^6BG (100 μM O^6BG and 0.1% DMSO final) or 0.1% DMSO; and the cells were transfected with 1,000 ng of a plasmid cocktail using Lipofectamine 3000 (ThermoFisher Scientific) at 1.8 μL Lipofectamine 3000 Reagent and 2 μL P3000 reagent in Opti-MEM medium (ThermoFisher Scientific). […] For the “undamaged” condition, the plasmid cocktail replaced the mPlum O^6MeG reporter plasmid with 100 ng of a plasmid expressing mPlum. The plasmid encoding BFP was used as an internal transfection control. For transfections where no MGMT encoding plasmid is used (no pMGMT), 250 ng of additional carrier plasmid was used to maintain a total DNA amount of 1,000 ng in each transfection. Four hours after transfection, the transfection medium was changed.
All transfected cells were analyzed by flow cytometry at 24-hours after transfection. Data was analyzed as previously described in Nagel et al., 2014 PNAS USA 111 (18): E1823-32 and Piett et al., 2021 Nat. Protoc. 16 (9): 4265-4298. For each condition, normalized reporter expression was determined by taking the product of the mPlum-positive cell count and the mean mPlum fluorescence intensity in mPlum-positive cells and dividing it by the product of the BFP-positive cell count and the mean BFP fluorescence intensity in BFP-positive cells. Next, for each MGMT variant, the percent reporter expression was determined by taking the normalized reporter expression in the “damaged” condition and dividing it by the normalized reporter expression in the “undamaged” condition, and then multiplying by 100 to obtain a percent value. […]

Molecule | Reporter expression (%) mean, O^6BG [%] | Reporter expression (%) mean, DMSO [%] | MGMT activity (a.u.) DMSO [a.u.] | MGMT activity (% of WT) DMSO | Relative MGMT activity (%) | MGMT activity (a.u.) O^6BG [a.u.] | MGMT activity (% of WT) O^6BG | Ratio percent reporter expression (O^6BG/DMSO) | O^6BG resistance relative to WT (%)
B1 | 106.0 | 20.0 | 5.00 | 92.5 % of WT | 18.9 | 0.94 | 66.0 % of WT | 5.30 | −28.6
B2 | 93.0 | 94.0 | 1.06 | 19.7 % of WT | 101.1 | 1.08 | 75.3 % of WT | 0.99 | 282.4
B3 | 49.0 | 15.3 | 6.52 | 120.7 % of WT | 31.3 | 2.04 | 142.9 % of WT | 3.20 | 18.4
B4 | 104.3 | 109.7 | 0.91 | 16.9 % of WT | 105.1 | 0.96 | 67.1 % of WT | 0.95 | 297.7
B5 | 76.8 | 25.3 | 3.96 | 73.3 % of WT | 32.9 | 1.30 | 91.2 % of WT | 3.04 | 24.5
B6 | 101.7 | 27.3 | 3.66 | 67.7 % of WT | 26.9 | 0.98 | 68.9 % of WT | 3.72 | 1.7
B7 | 64.0 | 16.3 | 6.12 | 113.3 % of WT | 25.5 | 1.56 | 109.4 % of WT | 3.92 | −3.4
B8 | 82.5 | 42.8 | 2.34 | 43.3 % of WT | 51.8 | 1.21 | 84.8 % of WT | 1.93 | 96.1
B9 | 84.3 | 13.3 | 7.50 | 138.8 % of WT | 15.8 | 1.19 | 83.0 % of WT | 6.33 | −40.2
B10 | 80.7 | 52.3 | 1.91 | 35.4 % of WT | 64.9 | 1.24 | 86.8 % of WT | 1.54 | 145.5
B11 | 31.0 | 14.7 | 6.82 | 126.1 % of WT | 47.3 | 3.23 | 225.8 % of WT | 2.11 | 79.0
B12 | 29.3 | 15.7 | 6.38 | 118.1 % of WT | 53.4 | 3.41 | 238.6 % of WT | 1.87 | 102.1
